B1: Antibody 28 (scFv, V domains shown)
VH: QVQLVQSGAEVKKPGASVKVSCKASGYTFTSYNIHWVRQAPGQGLEWMGWISAYNGNTNYAQKLQGRVTMTRDTSTSTVYMELSSLRSEDTAVYYCALDGGQLGVAFDIWGQGTMVTVSS
VL: DIQMTQSPSSLSASVGDRVTITCRASQGISNWLAWYQQKPGKAPKLLIYDASNLDAGVPSRFSGSGSGTDFTLTISSLQPEDFATYYCQQANSLPLTFGGGTKVEIK
B2: Antibody 11 (scFv, V domains shown)
VH: QVQLVQSGAEVKKPGASVKVSCKASGYTFTSYDINWVRQAPGQGLEWMGWMNPNSGNTGYAQKFQGRVTMTRDTSTSTVYMELSSLRSEDTAVYYCAKGAVAGTYYYYGMDVWGQGTTVTVSS
VL: DIQMTQSPSSLSASVGDRVTITCRASQTINNYLNWYQQKPGKAPKLLIYDASNLETGVPSRFSGSGSGTDFTLTISSLQPEDFATYYCQQANSFPLTFGQGTKVEIK
B3: Antibody 37 (scFv, V domains shown)
VH: QVQLVQSGAEVKKPGASVKVSCKASGYTLNNYDINWVRQAPGQGLEWMGWISGYNGNTNYAQKLQGRVTMTRDTSTSTVYMELSSLRSEDTAVYYCARVGSSWEENDQWGQGTLVTVSS
VL: DIQMTQSPSSLSASVGDRVTITCRASQSISRWLAWYQQKPGKAPKLLIYAASSLESGVPSRFSGSGSGTDFTLTISSLQPEDFATYYCQQTHSFPLTFGGGTKVEIK
B4: Antibody 31 (scFv, V domains shown)
VH: QVQLVQSGAEVKKPGASVKVSCKASGGTFRSYAISWVRQAPGQGLEWMGWMNPNSGNTGYAQKFQGRVTMTRDTSTSTVYMELSSLRSEDTAVYYCARESVLKGGMDVWGQGTTVTVSS
VL: DIVMTQSPDSLAVSLGERATINCRSSQSLFHSSTNANNLAWYQQKPGQPPKLLIYWASTRESGVPDRFSGSGSGTDFTLTISSLQAEDVAVYYCQQYYITPLTFGQGTRLEIK

These binders were tested against human SIRPα V1-His monomer protein (human) (UniProt P78324) (assay: BLI Octet, V5-scFv PPE captured, SIRP-His 500 nM).
human SIRPα V1-His monomer protein (human), sequence (P78324 31-370): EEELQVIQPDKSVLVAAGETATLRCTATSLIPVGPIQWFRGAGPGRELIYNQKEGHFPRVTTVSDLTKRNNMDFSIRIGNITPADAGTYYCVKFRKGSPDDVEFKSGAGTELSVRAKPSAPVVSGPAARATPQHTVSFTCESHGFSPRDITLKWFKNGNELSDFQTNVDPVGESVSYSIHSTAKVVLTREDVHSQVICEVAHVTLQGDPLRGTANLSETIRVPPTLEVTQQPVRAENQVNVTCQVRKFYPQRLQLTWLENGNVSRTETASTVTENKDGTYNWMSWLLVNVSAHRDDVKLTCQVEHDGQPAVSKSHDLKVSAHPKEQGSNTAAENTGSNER
With B1 the kdis was greater than 0.01 s⁻¹. B2 was tested, and the kdis was greater than 0.01 s⁻¹. B3 gave a kdis greater than 0.01 s⁻¹. Binder B4 has a kdis greater than 0.01 s⁻¹.
